{"source": "paper PMC13049513", "about": "“Assembly of a homohexameric minichromosome maintenance complex is dependent on ATP and DNA” (The Journal of Biological Chemistry, 2025)", "molecules": {"B1": {"name": "MacMCM, minichromosome maintenance protein from Mancarchaeum acidiphilum D59N; E61K; K476R; E537D; N484D; S532K (protein)", "chain": "MAEQQTSSLKLLFDEFLESYYSDEIKDIIIKFPNKRSLPVNISDLEEFDPDTATNLIANPKIIIDAANESLMGKLAGLNFDTYIPHVRFYNQSINTPMVLNVGSAYINKFVSIDALVVKRSDIRPKIRDAVFVCTFCNAKVKANLEKEEIPKVCPECKKRTLKIVPEESSFFNSQKIAVQDPLERLSGSIPTWQLEAWLDDDLVNMAIPGDRIEISGVLKIRPRKDSRGKVDPSIYSMYLNVTSLETKQKEFADIDISEDEERQIKELSKDPEIFNKVTQSVAPSIYGYNEIKQAVALQLFGGTPGKKLVDGGQIRSDMHILLIGDPGSAKTRILQSVSRLVPKGIYVSGKSVTGGGLTAVAERDDFSEGGWTLKAGAMVLGNGGIVAIDEFDKISEEDTAALHEALESQTISVAKAGIIATFNAKASVLAAANPKFGRFDPHKYPAEQFDISPTLLSRFDLIFPIRDIMDTELDRSIANYILDQHEAAGAAIADVESSVAAEEPPIEHSLLKKYIAYAKRYVMPRLSEEAKNRIKDYYVDLRRAGSMKGATPITPRQIEGLIRMAEASAKSQLRDVVSVKDANLAISLSEYMLKTLAVDTEGRTDIDTILTGMPREKVDKINVILDAVKKLEEMDGSAKIDRIFEEVAKQGVDKNTANKYINELEQSGDIFSPKMGIIKVVRHEEE"}}, "key": {"MacMCM^ΔWHD [1]": {"target": "T1, MacMCM^ΔWHD (Candidatus Mancarchaeum acidiphilum, UniProt A0A218NN99, E391Q, form not given)", "T1 construct": "gene Mia14_0611", "T1 sequence (A0A218NN99 entry or part of it E391Q, form open)": "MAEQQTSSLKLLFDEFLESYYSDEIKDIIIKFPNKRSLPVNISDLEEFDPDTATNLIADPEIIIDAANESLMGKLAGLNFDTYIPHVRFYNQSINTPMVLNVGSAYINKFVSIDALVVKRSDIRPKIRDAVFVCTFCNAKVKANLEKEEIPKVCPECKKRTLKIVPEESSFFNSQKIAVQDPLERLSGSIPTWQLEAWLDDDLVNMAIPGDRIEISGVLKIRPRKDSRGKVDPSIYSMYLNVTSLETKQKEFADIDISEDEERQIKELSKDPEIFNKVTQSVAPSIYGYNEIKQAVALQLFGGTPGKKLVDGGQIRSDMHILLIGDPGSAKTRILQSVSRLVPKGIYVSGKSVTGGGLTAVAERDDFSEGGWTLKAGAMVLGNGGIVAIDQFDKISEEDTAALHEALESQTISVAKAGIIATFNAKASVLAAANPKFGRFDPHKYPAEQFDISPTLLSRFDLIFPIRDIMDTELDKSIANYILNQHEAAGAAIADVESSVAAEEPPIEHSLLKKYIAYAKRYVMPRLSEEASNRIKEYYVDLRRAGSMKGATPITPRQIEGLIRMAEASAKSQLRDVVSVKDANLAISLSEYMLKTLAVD", "assay": "X-ray crystal structure, […] Å", "type": "binding", "settings": "crystals grown with 10 mM ATP and 10 mM MgCl2; nucleotide modelled as ADP; ATPase site at subunit interface, five of six sites"}, "MacMCM": {"target": "T2, MacMCM (Candidatus Mancarchaeum acidiphilum, UniProt A0A218NN99, E391Q)", "T2 construct": "gene Mia14_0611; full length, codon-optimised gene, N-terminal His10 tag cut with TEV protease, from E. coli BL21(DE3) pLysS; monomer without ligands, homohexamer with ATP and DNA", "T2 sequence (A0A218NN99 entry or part of it E391Q)": "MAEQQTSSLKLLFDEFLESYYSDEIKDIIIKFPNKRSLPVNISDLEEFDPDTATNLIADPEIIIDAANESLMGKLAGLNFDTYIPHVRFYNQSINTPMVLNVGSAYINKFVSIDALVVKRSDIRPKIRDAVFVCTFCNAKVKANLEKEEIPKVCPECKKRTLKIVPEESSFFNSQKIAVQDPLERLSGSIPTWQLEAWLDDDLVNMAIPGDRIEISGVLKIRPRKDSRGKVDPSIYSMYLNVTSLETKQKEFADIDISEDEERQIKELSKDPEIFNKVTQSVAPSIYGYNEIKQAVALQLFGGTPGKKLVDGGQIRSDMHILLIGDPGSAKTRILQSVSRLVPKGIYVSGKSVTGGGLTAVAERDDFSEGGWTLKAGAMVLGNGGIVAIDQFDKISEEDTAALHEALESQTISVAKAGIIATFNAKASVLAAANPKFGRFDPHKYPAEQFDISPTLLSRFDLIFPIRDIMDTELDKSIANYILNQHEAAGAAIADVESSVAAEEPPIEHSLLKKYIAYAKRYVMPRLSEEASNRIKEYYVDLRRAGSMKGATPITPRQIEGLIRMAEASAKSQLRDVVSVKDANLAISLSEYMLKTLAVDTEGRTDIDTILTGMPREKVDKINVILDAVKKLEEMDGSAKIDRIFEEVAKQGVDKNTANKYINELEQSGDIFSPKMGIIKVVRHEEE", "assay": "analytical SEC: ATP-dependent hexamer formation with ssDNA", "type": "binding", "settings": "1 mM ATP, 10 mM MgCl2, FAM-polyT50 ssDNA, pH 8.0; Walker B mutant, no ATP hydrolysis"}, "MacMCM^ΔWHD [2]": {"target": "T1, MacMCM^ΔWHD", "assay": "analytical SEC: ATP-dependent hexamer formation with ssDNA", "type": "binding", "settings": "1 mM ATP, 10 mM MgCl2, FAM-polyT50 ssDNA, pH 8.0; Walker B mutant, no ATP hydrolysis"}, "[3]": {"tested_on": "MacMCM E391Q (Mancarchaeum acidophilum)", "assay": "fluorescence anisotropy", "settings": "Anisotropy: 250 mM potassium glutamate, 20 mM Tris pH 8.0, 1 nM forked DNA, with 4 mM nucleotide and 10 mM MgCl2 where present; temperature not stated (EMSA …)"}, "[4]": {"tested_on": "MacMCMΔWHD E391Q (Mancarchaeum acidophilum), PDB:8Q67_1", "assay": "fluorescence anisotropy", "settings": "Anisotropy: 250 mM potassium glutamate, 20 mM Tris pH 8.0, 1 nM forked DNA, with 4 mM nucleotide and 10 mM MgCl2 where present; temperature not stated (EMSA …)"}, "[5]": {"target": "MacMCM, minichromosome maintenance protein from Mancarchaeum acidiphilum (Mancarchaeum acidiphilum)", "assay": "SEC; analytical SEC, Superose 6 Increase 10/300 GL, 200 mM NaCl, 20 mM Tris pH 8.0, 5% glycerol; protein 10 uM with equimolar fluorescein-polyT50 ssDNA; 1 mM ATP and 10 mM MgCl2 in the buffer"}, "[6]": {"target": "MacMCM DNEK (plus-SB mutant D59N–E61K)", "assay": "analytical size-exclusion chromatography (SEC), self-association", "settings": "Protein samples (10 μM); Superdex S200 Increase 10/300 GL; UV absorbance at 280 nm; parent: est. 13.1; read off a plot"}, "[7]": {"target": "MacMCM D311K (minus-SB mutant)", "assay": "analytical size-exclusion chromatography (SEC), self-association", "settings": "Protein samples (10 μM); Superdex S200 Increase 10/300 GL; UV absorbance at 280 nm; parent: est. 13.1; read off a plot"}, "[8]": {"target": "MacMCM triple site minus-SB mutant (D311K, D366K, R543E)", "assay": "analytical size-exclusion chromatography (SEC), self-association", "settings": "Protein samples (10 μM); Superdex S200 Increase 10/300 GL; UV absorbance at 280 nm; parent: est. 13.1; read off a plot"}, "[9]": {"target": "MacMCM D366K (minus-SB mutant)", "assay": "analytical size-exclusion chromatography (SEC), self-association", "settings": "Protein samples (10 μM); Superdex S200 Increase 10/300 GL; UV absorbance at 280 nm; parent: est. 13.1; read off a plot"}, "[10]": {"target": "MacMCM KRED (plus-SB mutant K476R–E537D)", "assay": "analytical size-exclusion chromatography (SEC), self-association", "settings": "Protein samples (10 μM); Superdex S200 Increase 10/300 GL; UV absorbance at 280 nm; parent: est. 13.1; read off a plot"}, "[11]": {"target": "MacMCM NDSK (plus-SB mutant N484D–S532K)", "assay": "analytical size-exclusion chromatography (SEC), self-association", "settings": "Protein samples (10 μM); Superdex S200 Increase 10/300 GL; UV absorbance at 280 nm; parent: est. 13.1; read off a plot"}, "[12]": {"target": "MacMCM R543E (minus-SB mutant)", "assay": "analytical size-exclusion chromatography (SEC), self-association", "settings": "Protein samples (10 μM); Superdex S200 Increase 10/300 GL; UV absorbance at 280 nm; parent: est. 13.1; read off a plot"}, "[13]": {"target": "MacMCM^E391Q, Walker B mutant of MacMCM (Mancarchaeum acidiphilum)", "assay": "SEC; analytical SEC, Superose 6 Increase 10/300 GL, 200 mM NaCl, 20 mM Tris pH 8.0, 5% glycerol; protein 10 uM with equimolar fluorescein-polyT50 ssDNA; 1 mM ATP and 10 mM MgCl2 in the buffer"}, "[14]": {"target": "MacMCM^ΔWHD.E391Q, MacMCM lacking the C-terminal winged-helix domain with the Walker B mutation E391Q (Mancarchaeum acidiphilum)", "assay": "crystal structure; MacMCM^ΔWHD.E391Q crystallised with 10 mM ATP and 10 mM MgCl2, 20 °C; ADP and phosphate in the active sites; 2.59 Å"}, "[15]": {"target": "MacMCM^ΔWHD.E391Q, MacMCM lacking the C-terminal winged-helix domain with the Walker B mutation E391Q (Mancarchaeum acidiphilum)", "assay": "SEC; analytical SEC, Superose 6 Increase 10/300 GL, 200 mM NaCl, 20 mM Tris pH 8.0, 5% glycerol; protein 10 uM with equimolar fluorescein-polyT50 ssDNA; 1 mM ATP and 10 mM MgCl2 in the buffer"}, "[16]": {"target": "SsoNPfuCMCM, chimeric MCM of the N-terminal domain of SsoMCM fused with the ATPase domain of PfuMCM (Sulfolobus solfataricus | not stated) (UniProt Q9UXG1)", "assay": "SEC-MALS; SEC-MALLS, Superose S6 Increase 10/300 GL, 200 mM KCl, 50 mM Tris-Cl pH 8.0, 5% glycerol, 0.5 mM DTT; 100 ul protein at 1 to 10 mg/ml; no ligands"}, "[17]": {"target": "T3, MacMCM triple-site plus-SB mutant (D59N–E61K, K476R–E537D, N484D–S532K)", "T3 chain": "B1 chain", "assay": "analytical size-exclusion chromatography (SEC), self-association", "settings": "chain shown with the change; Protein samples (10 μM); Superdex S200 Increase 10/300 GL; UV absorbance at 280 nm; parent: est. 13.1; read off a plot"}}}
{"molecule": "Nc1ncnc2c1ncn2[C@@H]1O[C@H](COP(=O)(O)OP(=O)(O)O)[C@@H](O)[C@H]1O", "note": "[ADP]", "values": [{"measurement": "X-ray crystal structure, 2.6 Å", "setting": "MacMCM^ΔWHD [1]", "value": "ADP was identified in five of the six ATPase active sites"}]}
{"molecule": "Nc1ncnc2c1ncn2[C@@H]1O[C@H](COP(=O)(O)OP(=O)(O)OP(=O)(O)O)[C@@H](O)[C@H]1O", "note": "[ATP]", "values": [{"measurement": "analytical SEC: ATP-dependent hexamer formation with ssDNA", "setting": "MacMCM", "value": "both MacMCM^E391Q and MacMCM^ΔWHD.E391Q coeluted with ssDNA at elution volumes consistent with a homohexamer"}, {"measurement": "analytical SEC: ATP-dependent hexamer formation with ssDNA", "setting": "MacMCM^ΔWHD [2]", "value": "both MacMCM^E391Q and MacMCM^ΔWHD.E391Q coeluted with ssDNA at elution volumes consistent with a homohexamer"}]}
{"molecule": "GGGACGCGTCGGCCTGGCACGTCGGCCGCTGCGGCCAGGCACCCGATGGCGTTTGTTTGTTTGTTTGTTTGTTT / TTTGTTTGTTTGTTTGTTTGTTTGTTTGTTTGCCGACGTGCCAGGCCGACGCGTCCC [forked DNA]", "values": [{"measurement": "Kd", "setting": "[3]", "value": 780, "unit": "nM"}, {"measurement": "Kd", "setting": "[4]", "value": 114, "unit": "nM"}]}
{"molecule": "MacMCM, minichromosome maintenance protein from Mancarchaeum acidiphilum (enzyme)", "values": [{"measurement": "stoichiometry N", "setting": "[5]", "value": 6}]}
{"molecule": "MacMCM, minichromosome maintenance protein from Mancarchaeum acidiphilum D59N; E61K", "values": [{"measurement": "other: SEC peak retention volume", "setting": "[6]", "value": 12.9, "unit": "mL"}]}
{"molecule": "MacMCM, minichromosome maintenance protein from Mancarchaeum acidiphilum D311K", "values": [{"measurement": "other: SEC peak retention volume", "setting": "[7]", "value": 13.4, "unit": "mL"}]}
{"molecule": "MacMCM, minichromosome maintenance protein from Mancarchaeum acidiphilum D311K; D366K; R543E", "values": [{"measurement": "other: SEC peak retention volume", "setting": "[8]", "value": 13.3, "unit": "mL"}]}
{"molecule": "MacMCM, minichromosome maintenance protein from Mancarchaeum acidiphilum D366K", "values": [{"measurement": "other: SEC peak retention volume", "setting": "[9]", "value": 13.4, "unit": "mL"}]}
{"molecule": "MacMCM, minichromosome maintenance protein from Mancarchaeum acidiphilum K476R; E537D", "values": [{"measurement": "other: SEC peak retention volume", "setting": "[10]", "value": 13.3, "unit": "mL"}]}
{"molecule": "MacMCM, minichromosome maintenance protein from Mancarchaeum acidiphilum N484D; S532K", "values": [{"measurement": "other: SEC peak retention volume", "setting": "[11]", "value": 13, "unit": "mL"}]}
{"molecule": "MacMCM, minichromosome maintenance protein from Mancarchaeum acidiphilum R543E", "values": [{"measurement": "other: SEC peak retention volume", "setting": "[12]", "value": 13.3, "unit": "mL"}]}
{"molecule": "MacMCM^E391Q, Walker B mutant of MacMCM (enzyme)", "values": [{"measurement": "stoichiometry N", "setting": "[13]", "value": 6}]}
{"molecule": "MacMCM^ΔWHD.E391Q, MacMCM lacking the C-terminal winged-helix domain with the Walker B mutation E391Q (domain or fragment)", "values": [{"measurement": "stoichiometry N", "setting": "[14]", "value": 6}, {"measurement": "stoichiometry N", "setting": "[15]", "value": 6}]}
{"molecule": "SsoNPfuCMCM, chimeric MCM of the N-terminal domain of SsoMCM fused with the ATPase domain of PfuMCM (from UniProt Q9UXG1 2-321) (enzyme)", "values": [{"measurement": "stoichiometry N", "setting": "[16]", "value": 6}]}
{"molecule": "B1", "values": [{"measurement": "other: SEC peak retention volume", "setting": "[17]", "value": 11.6, "unit": "mL"}]}
